Tests used:
[1] = test system: baboon smooth muscle cells; test: Inhibition of PDGF-BB mitogenic activity on baboon smooth muscle cells ([3H] thymidine incorporation); type: cell-based; conditions: vehicle 74
Procedure: NNC92-0270 was analyzed for the ability to inhibit the mitogenic activity of PDGF on baboon smooth muscle cells. All mitogenesis assays performed on baboon vascular smooth muscle cells (BVSMCs) were done on primary cultures of cells between passages 13 and 20 in culture. The initial cultures were established from outgrowth of aortic tissue explants. Baboon smooth muscle cells were plated at approximately 20,000 cells per well, in DMEM supplemented with 10% fetal calf serum, into 24-well culture dishes. One day prior to use the culture media was removed, and 1 ml of Mito Media (Table 5) was added to each well to allow the cells to become quiescent. At the time of the experiment the cells were stimulated with PDGF-BB. […] 20× stock solutions were made for each of the PDGF concentrations by dilution in 10 mM acetic acid containing 0.25% albumin, and 50 ul PDGF or dilution vehicle alone was added to the culture wells.
To analyze the activity of NNC92-0270 to neutralize PDGF-BB mitogenic activity, 1 ng/ml of PDGF was added to wells along with dilutions of NNC92-0270. The cells were incubated with the test samples for approximately 20 hours at 37 ° C. Fifty microliters of a 20× stock solution of [3H] Thymidine was then added to each well to give a final concentration of 1 μCi/ml. The cells were incubated for 4 hours at 37 ° C., washed with PBS, then harvested with trypsin and counted for [^3 H] thymidine incorporation in a Wallac (Turku, Finland) Betaplate™ liquid scintillation counter.
NNC92-0270 was incubated with 1 ng/ml of PDGF-BB in the presence of 0.5 U/ml of unfractionated heparin. The cells were pulse labeled with [^3 H] thymidine as described above and the level of [^3 H] thymidine determined.

[2] = test system: baboon smooth muscle cells; test: Wash-out study of PDGF-BB mitogenic activity on baboon smooth muscle cells; type: cell-based; conditions: T = -24 hrs 0.5% DMSO; T = 0 hrs PDGF-BB (1 ng/ml); mean +/- SD; vehicle only 164 +/- 10
Procedure: NNC92-0270 was analyzed for prolonged inhibitory effect on PDGF-BB mitogenic activity on baboon smooth muscle cells in a wash-out experiment. Baboon SMCs were plated at 20,000 cells per well in a 24-well culture dish and grown for 2 days. The culture media was removed and replaced with Mito Media (Table 5) to allow the cells to become quiescent. The experiment was set up such that cells were treated with NNC92-0270 or vehicle control (0.5% DMSO) for either 24 hours prior to the addition of PDGF-BB, or sequentially with the addition of PDGF-BB. Those cells initially treated with NNC92-0270 or control vehicle for 24 hours, were washed with Mito Media to remove the test compound and then incubated with PDGF-BB (1 ng/ml) for an additional 24 hours. A second set of cells was treated with NNC92-0270 or vehicle control simultaneously with PDGF-BB for 24 hours. The cells were pulse labeled for 4 hours with [^3 H] thymidine (1 μCi/ml final) harvested with trypsin and counted in a Wallac Betaplate counter to determine CPM for [^3 H] thymidine incorporation.
Acetic acid (10 mM) was used as the PDGF-BB vehicle control and 0.5% DMSO was used as the test compound control.

B1: PDGF-BB: platelet derived growth factor BB, mitogenic stimulus used for the standard curve (protein, UniProt P01127 82-190, looked up)
Platelet-derived growth …: SLGSLTIAEPAMIAECKTRTEVFEISRRLIDRTNANFLVWPPCVEVQRCSGCCNNRNVQCRPTQVQLRPVQVRKIEIVRKKPIFKKATVTLEDHLACKCETVAAARPVT
modifications: homodimer
notes: platelet derived growth factor BB, mitogenic stimulus used for the standard curve
3H Thymidine (CPM Incorporated), PDGF-BB standard curve ([1]; PDGF-BB 0.062 ng/ml): 120 CPM
3H Thymidine (CPM Incorporated), PDGF-BB standard curve ([1]; PDGF-BB 0.125 ng/ml): 226 CPM
3H Thymidine (CPM Incorporated), PDGF-BB standard curve ([1]; PDGF-BB 0.25 ng/ml): 392 CPM
3H Thymidine (CPM Incorporated), PDGF-BB standard curve ([1]; PDGF-BB 0.5 ng/ml): 959 CPM
3H Thymidine (CPM Incorporated), PDGF-BB standard curve ([1]; PDGF-BB 1 ng/ml): 1701 CPM
[3H] Thymidine Incorporation (cpm) [2]: 6370 +/- 1303 cpm
